Measurements reported in the DeepSol protein solubility set.

Assay: soluble on expression in E. coli; label from the status in PepcDB or PDB records

Sequence	soluble on expression in E. coli
MGSDKIHHHHHHMTIYYNEMVDGGLVREPYAMLSDWIETMPAEIRQMKQAEAEALFRRIGITFAVYGEGGDPDRLIPFDMMPRVFLQGEWRRLERGIKQRARGLNAFLRDVYGRGEIVRAGRIPAPLVYRNAAYEKAVVGFVPPRGVFSHIVGIDIVRTGRDEFHVLEDNCRTPSGVSYMLENREIMMRMFPALFRNNRIEPVDQYPELLRRTLASVAPAKCEGEPTVVILTPGHYNSAYYEHSFLANLMGVELVEGSDLFVDGGFVYMRTTQGPKRVDVIYRRIDDQFLDPLCFRRDSMLGVPGLMDVWRSGGVSIASAPGAGVADDKAVYTFVPEMIRFYLGEEPILNNVQTWTLWKDDDYRYVMANLKDLVVKEVHGSGGYGMLIGPRATKAEIEAFAERIKADPGNYIAQPTLALSTSPTFVDEGVAPRHVDLRPFCLCGDRIELVPGGLTRVALREGSLVVNSSQGGGVKDTWVLSE	not soluble
PDKEYHTLHWIIMGALSCATRTVQIMTPYFIPDRSLVSALVTTALRGVEVTLVLPEKNNLPFVHWATRAYLWELIQQGIRVFYQPPPFAHTKLFIVDGLWSMIGSANLDPRSLRLNFELNLEVYDRELAGTLSRHFAVTVARSRQVSLTEMDGR	not soluble
MSLGQKVVAMLDFLLAYSDYSKDFRPLIIDQPEDNLDNRYIYRHLVQQFRDVKAQRQIILATHNATIVTNSMTDQVVIMESDGVNGWIESQGYVSEKYIKNHIINQLEGGKDSFKHKMSIYETALSEGHHHHHH	not soluble
MSLIVNFHKVNLKKKYPLQISRGTHSKSQNLFVEIIKDGITGWGESAPGKTEGASNADEVEKWLLKLIDTGIDSLSIYEIFQRSKDLNIPPCVHAAIDIALWDWKAKKAGLPLNNLLGLPTPSTPTSLTIGINPPEIIKERVEMLLSNPQIKALKIKLGSPDGIEYDKSIYSQVLESTKKSNISIRVDANGGWSLDEAKLMMKWLAERKAEYIEQPLVEGEEDKLKYLFKSRPLPIFIDESCRFSEDVARHFEYVDGVNLKLMKCGGITEALRILNVAKSHNLKTMIGCMSESSISISAGASISGIIDYVDLDSHYNLDPDPSEGATMIDGITMNDNKPGHGSKLKIENYAEGHHHHHH	soluble
MAHHHHHHMATARSYFYYLDAHGNLFPVTDIKGLIDGTNIPAGPIQLRDRAFLDFFYLRLKRSDVEDAAACSNVSDRREEGELLLHSGAKLTPQEVVQHFPYVSICGPERNFLKAEEAPLVFVNYTSGHPKCKQQNGTLAFGESLWEDFQPQALVVTREGKLFHPITKLKNLIATQNGAGDAVPRGLVEAQVVKKLGLELVCDSAKSGYYVLEWKGQKQRIPYFDEL	not soluble
MTDESDALCATEKEIMHATHRALVNSGYAELSISRISDELDKAKSTIYHYYDSKDALLLRFLRFTVDRFEATINTSIGDNPKEDLNHIISTLLPCQLPEEKRQLHSVLVTLSPQALERAVFREQFTEIDTRLATIIEKTVRRGVDADVFRDVDPTHAAEHILATIKGTMYSRLTTNREAATAAAKASLFSYIDSHLIS	not soluble
MGSDKIHHHHHHMIRSLWIAKTGLDAQQMQMDVIANNLANVSTNGFKKTRAVFEDLLYQNIRQPGAQSSQQTQLPSGLQLGTGVRPVATERIHIQGNLQQTGNNKDVAISGEGFFQVLLPDGSTAYTRDGAFQLDNQGQLVTASGFTVQPAIIVPPNALSLTVGRDGTVSVVLPDNPNNAVQIGTFQLATFINPAGLQSRGENLYIETAASGPANINQPGLNGTGLLVHQYLETSNVNVAEELVSMIQTQRAYEINSKAISTSDQMLQRLSQL	not soluble
MTAWHRLPAAARALFGAKGGCTGSQRSYDDVLRVMYELTLRVVNPTYRNRTLANTSGKSAELVGLLVERLNMRRCLDTLRFVHVAGTKGKGTTASYTAALLEAYGLKVGLFTSPHVKDVRERIMVNNEVLPMDTFVHYFFQVVDCFVELAGADKEVTWDLPAPCSFFCLMFLVSLVAFAGESVDVAVVEVGIGGSRDPTNIIIPEASVITALGIDHTEILGDTVEEIALQKAGIMKPGVVCYAAPQGDHPSTRRVLKDYAEGVDSPLVFADDVAVPTDGWPCLSIGGEHAVENSRLALLAARSVMGIPLTQPLDDVERHVLQRTTVMGRSQVLPVGDGSKGTFYLDGAHTYESLRCATRWFVKESTKRTCDSKPRRVLLMYSSRQPERIVEAFRPFVDSFSKAVFVCALDPKGMREIWKNNSDAYTQDKATGLIRCWKTLCGAVPCFSRAAPFVSVEEVVEVVSAASSDDEDTSKPVQVFVTGSFFLVSDIVNLYDSQGS	not soluble
MAHHHHHHMDLVQLQRILSTHDERVVKVFVNHIPEVGLRKIDDCVLEYMLKMLEGQTSSESYLPEEIIEETMKLYFREFDVFSDSEEKLNKSTAAICQQMLKEGITKKPSEESSRLASAVNIGRQYEESLKRATMIKSVGKVTTANTNEDWTWETKRSAAKDMRKKRREDEKKAILAEEYEAFLRKRGISNTTAVTKIHHKGEGTNYSTDIRCEAIHIQLGKQVLLDDTDLVLLTGHKYGLIGRNGAGKTTLLRALAERELEGVSPFMQILHVEQEIVAGAETPLEVLLATDVERAQLLHEEQELLKQNDTEANTRLNEVYARLDAIDAHSAEARAATILHGLSFTQDMMTSPTKQLSGGWRMRVALARALFVEPDVLLLDEPTNHLDLFAVLWLEQFLRDWQKTLIVVSHSRTFLNNVCSEIIHLIGHHLHYYNGNYDQFEITRVEQERQQKKQHAAQEKQRAHIQAFIDKFRYNANRAKMAQSRIKALERMEMVADVVTDPQFAFTFPDAEPVSGSFIEMVDCEFGYKPGVSLFKDVNMGIDESSRIVLVGANGVGKSTFMNVCTGALEPRSGTVVRNKKIRVAHFAQHNMESLTPQLSSLEFLRSKFPHMEDQQLRAHLGSMGLSGERALQPIYTLSGGQKSRLVLAWITFQKPHLLLLDEPTNHLDIDTVNALIEALLAYNGGLLVISHDEYFITSLCDDIFVCEDNTVKKFDGDFAEYRKHVVKMMK	soluble
MAMNNILGLFAHSPLKPLQKHSEKVTECSDLLIPFFQTTFSKNWEQAEEKRLEISQCEREADSLKREIRLKLPRGLFLPIDRTDLLELVTQQDKLANYAKDIAGRMIGRQFGIPEEMQEEFLHYVKRSLDAIHQAHRVIEEMDKLLETGFKGRELKLVNDMIQELDSIEDDTDQMQIKLRKMLYTIESRYNPIDVMFLYKIIEWVGVLADQAQRVGSRIELMLARS	not soluble
MTEVVLHIYDVTNSGSEKTNNTIVQINRFFKDGIGLGGIFHSAIQVYGNDEWSYGYCELGTGVFSCPSGKNPMYTYREKIVLGKTDCTIFMVNQMLRELSREWPGHTYDLLSKNCNHFCDVLCDRLGVPKIPGWVNRFANAGDTALEVAGNTAMRMKQAKTELVSASKVAYRFLSNVTSNVTNGSNGSPQRPGTLNNSDSGNLRLQGSWLKGLLNTAKPSTSTEIGNKDEDANHAVTNQKKQSRDSDVLLFQ	not soluble
GVSVDARIAKNVEEFLAAAQEINPSYHLISGYRSVAYQTELYNSYVQQEMADDPTLTESQAEKKVQTYSQPPGASEHQTGLAIDMSTVDSLDEADPATVAKVKKIAPKYGFVLRFPDGKTSSTGVGYEDWHFRYVGKESAEYMTEHNLTLEEYLVLLKEKTK	not soluble
MNVLIIEDDPMVDFIHRNYLEKLNLFDRIISSDSMKAVQSILTDYAIDLILLDIHITDGNGIQFLEKWRTQHIPCEVIIISAANDGNIIRDGFHLGIIDYLIKPFTFERFQESIQQFVTHREHLANQQLEQAQIDQLKCLTSKKDTKNKQLLEKGLSESTFQWIMENIKVFDQPFTIQELASACHLSHVSVRKYIAYLEENKQLNSQQIFTKVGRPYRVYW	not soluble
MIFEVPIDHFPASSQQVSKTREHKPLRLSTVSLHSKEVNAAVAPLSPSVRRSQFNFSSEVTKSALPKVRASIPPLKRALTSPALPVQHLNLNLVRKGSNPSSQTSRNNSVTDLLKSELFKMPSRLLSTAVSLHQLA	not soluble
MLKGILYIIGIYQRYLSPLKGPTCRFYPSCSRYAHESLTRYGLVKGLWLTTIRILKCHPFHPGGVDPVKLEHHHHHH	not soluble
KVGILQFVTHDALDQIEKGIEDGLKEAGYKGDKVQITLLNAEGDQSKIQTMSKQLVNDKNDVVIGIATPAAQGLAAATKDIPVIMGAISDPVGAKLVKNLKHPEGNVTGTSNQVPIKQTVELVKSLTPNAKTIGILYASSEDNSQSQVESFKKYAEQDGLNVIEYAVPSTNEINTTMSVMTGKVDAIWTPQDNTIASSFSTVISLANQAKIPVYTTVDTMVKEGGLASVAQNQYELGKATARSAIKVLKGKKVKDIPVDVIDDGTPTLNLKVARDLNITIPDDVLKQSDIAVKADK	not soluble
